The values that follow are results of earlier work, collected in article PMC4536614.

For the series, the target named is C3d C3d (Homo sapiens) (UniProt P01024).
Chain of C3d C3d (Homo sapiens) (P01024 1002-1303): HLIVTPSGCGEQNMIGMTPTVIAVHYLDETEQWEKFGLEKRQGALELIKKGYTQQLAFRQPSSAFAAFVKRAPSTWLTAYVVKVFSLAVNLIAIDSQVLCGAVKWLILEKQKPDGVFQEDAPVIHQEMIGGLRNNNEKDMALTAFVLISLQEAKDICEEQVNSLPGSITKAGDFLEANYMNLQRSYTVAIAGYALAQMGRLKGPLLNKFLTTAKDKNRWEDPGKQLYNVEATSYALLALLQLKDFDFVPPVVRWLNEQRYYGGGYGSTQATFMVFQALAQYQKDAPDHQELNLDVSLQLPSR

Chain of complement receptor 2 (CR2) (P20023 21-971): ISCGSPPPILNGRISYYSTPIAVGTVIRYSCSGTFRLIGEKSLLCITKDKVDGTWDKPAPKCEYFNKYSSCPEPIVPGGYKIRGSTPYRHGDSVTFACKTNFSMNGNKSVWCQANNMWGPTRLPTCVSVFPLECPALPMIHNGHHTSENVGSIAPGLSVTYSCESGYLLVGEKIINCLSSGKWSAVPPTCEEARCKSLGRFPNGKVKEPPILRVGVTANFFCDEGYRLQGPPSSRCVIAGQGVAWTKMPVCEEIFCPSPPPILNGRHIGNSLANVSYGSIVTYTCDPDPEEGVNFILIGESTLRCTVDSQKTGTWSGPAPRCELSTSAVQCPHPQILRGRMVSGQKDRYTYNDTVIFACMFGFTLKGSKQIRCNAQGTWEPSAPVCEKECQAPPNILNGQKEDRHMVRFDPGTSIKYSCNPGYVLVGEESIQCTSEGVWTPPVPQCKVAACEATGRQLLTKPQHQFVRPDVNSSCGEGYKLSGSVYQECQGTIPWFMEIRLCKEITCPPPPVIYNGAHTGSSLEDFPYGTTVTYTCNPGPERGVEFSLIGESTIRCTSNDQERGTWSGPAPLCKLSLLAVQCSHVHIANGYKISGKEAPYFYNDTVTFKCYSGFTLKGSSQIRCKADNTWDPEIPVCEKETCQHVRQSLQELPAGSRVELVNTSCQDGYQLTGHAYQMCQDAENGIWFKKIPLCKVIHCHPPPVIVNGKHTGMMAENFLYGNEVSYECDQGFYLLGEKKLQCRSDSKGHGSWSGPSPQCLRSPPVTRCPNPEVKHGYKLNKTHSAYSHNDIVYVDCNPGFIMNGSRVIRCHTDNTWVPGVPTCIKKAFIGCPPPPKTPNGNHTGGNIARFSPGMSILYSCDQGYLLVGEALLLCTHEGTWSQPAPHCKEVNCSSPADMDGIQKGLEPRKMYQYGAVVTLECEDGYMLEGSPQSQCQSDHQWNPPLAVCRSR

As a reminder, the Kd is the concentration at which binding is half-saturated. As to “complement receptor 2 (CR2) (from UniProt P20023)”, the Kd was 500 nM.
